The results in this text go back to PMC7439480, “Phosphorylation-Dependent Assembly of a 14-3-3 Mediated Signaling Complex during Red Blood Cell Invasion by Plasmodium falciparum Merozoites” (mBio, 2020).

The target of this assay is T1, recombinant glutathione S-transferase (GST)-tagged Pf14-3-3I protein (P. falciparum, UniProt C0H4V6 1-262).
T1 construct: 14-3-3 protein I, P. falciparum, PF3D7_0818200; also called Pf14-3-3I-GST; recombinant Pf14-3-3I; source: recombinant
T1 sequence: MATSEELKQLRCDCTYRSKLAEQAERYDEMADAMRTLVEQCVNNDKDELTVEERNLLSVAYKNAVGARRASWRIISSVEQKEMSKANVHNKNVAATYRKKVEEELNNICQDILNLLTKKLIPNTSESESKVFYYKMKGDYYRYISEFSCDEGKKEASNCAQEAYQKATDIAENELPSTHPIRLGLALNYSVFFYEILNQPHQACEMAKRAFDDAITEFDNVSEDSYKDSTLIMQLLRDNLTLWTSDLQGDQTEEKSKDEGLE
Briefly: pull-down; peptides coupled to agarose beads (Pierce co-IP kit) incubated with GST-tagged Pf14-3-3I; eluates blotted with anti-Pf14-3-3I mouse sera; noncoated beads as control. The settings on record: both partners purified.

Non-standard residues stand in square brackets, D forms with d. No end group written: not given here. pS = N[C@@H](COP(=O)(O)O)C(=O)O

B1: 14-3-3 binding peptide RA (RLYHpSLPA) (peptide)
peptide: RLYH[pS]LPA
notes: Coupled to agarose beads (Pierce co-IP kit) for the pull-down; also called phosphopeptide RA; source: synthetic peptide
With B1, the binding result is on record as “binds”.

B2: 14-3-3 binding peptide AA (ARSHpSYPA) (peptide)
peptide: ARSH[pS]YPA
notes: Coupled to agarose beads (Pierce co-IP kit) for the pull-down; also called phosphopeptide AA; source: synthetic peptide
For the molecule B2, the binding result was “binds”.
